The results in this text go back to patent US6936706.

The target of the assay is bacterial fusion protein 11-2 (a hybrid of b-galactosidase and human mammary mucin) (human) (UniProt P15941). Nature of the assay: competition RIA against 125I-labeled murine BrE-3 on 11-2 fusion protein; reciprocal of the competitor concentration giving 50% binding.

B1: murine-human chimeric BrE-3 antibody (ATCC HB 11199, Chimeric BrE-3 A1C10) (antibody, V domains shown)
VH: EVKLEESGGGLVQPGGSMKLSCAASGFTFSDAWMDWVRQSPEKGLEWVAEIRNKANNHATYYDESVKGRFTISRDDSKSRVYLQMISLRAEDTGLYYCTGEFANWGQGTLVTVSA
VL: DVVMTQTPLSLPVSLGDQASISCRSSQNLVHNNGNTYLYWFLQKSGQSPKLLIYRASIRFSGVPDRFSGSGSETDFTLKISRVEAEDLGVYFCFQGTHVPWTFGGGTKLEIK
In turn, B1 registered a Ka of 2.68e+08 M⁻¹.

B2: murine BrE-3 monoclonal antibody (ATCC No. HB 10028) (antibody, V domains shown)
VH: B1 VH
VL: B1 VL
The molecule B2 displayed a Ka of 3.75e+08 M⁻¹.
